Experimental findings from paper doi:10.64898/2025.12.02.691773 are described below.

The assay deals with DH-CRBN (human) (UniProt Q96SW2). Description: split reporter. Also on record: unit not given beside the values.

The substance “CHD8 full domain (FD) (from UniProt Q9HCK8 1-2581) (domain or fragment)” had an AUC of the growth curve with pomalidomide of 5130 and an AUC of the growth curve without compound (DMSO) of 3220.

“SPART FD (from UniProt Q8N0X7 1-666) (domain or fragment)” registered an AUC of the growth curve with pomalidomide of 2800 and an AUC of the growth curve without compound (DMSO) of 1780.
